Laboratory results taken from IntAct's records for PubMed 28348268.

B1: HLA class I histocompatibility antigen, alpha chain G (Homo sapiens), P17693-2 (parent)
chain: MVVMAPRTLFLLLSGALTLTETWAGSHSMRYFSAAVSRPGRGEPRFIAMGYVDDTQFVRFDSDSACPRMEPRAPWVEQEGPEYWEEETRNTKAHAQTDRMNLQTLRGYYNQSEANPPKTHVTHHPVFDYEATLRCWALGFYPAEIILTWQRDGEDQTQDVELVETRPAGDGTFQKWAAVVVPSGEEQRYTCHVQHEGLPEPLMLRWKQSSLPTIPIMGIVAGLVVLAAVVTGAAVAAVLWRKKSSD

Variants of: B1
Conditions: with lirb2_human LILRB2, Q8N423
Sequence of lirb2_human LILRB2, Q8N423 (Q8N423 whole entry): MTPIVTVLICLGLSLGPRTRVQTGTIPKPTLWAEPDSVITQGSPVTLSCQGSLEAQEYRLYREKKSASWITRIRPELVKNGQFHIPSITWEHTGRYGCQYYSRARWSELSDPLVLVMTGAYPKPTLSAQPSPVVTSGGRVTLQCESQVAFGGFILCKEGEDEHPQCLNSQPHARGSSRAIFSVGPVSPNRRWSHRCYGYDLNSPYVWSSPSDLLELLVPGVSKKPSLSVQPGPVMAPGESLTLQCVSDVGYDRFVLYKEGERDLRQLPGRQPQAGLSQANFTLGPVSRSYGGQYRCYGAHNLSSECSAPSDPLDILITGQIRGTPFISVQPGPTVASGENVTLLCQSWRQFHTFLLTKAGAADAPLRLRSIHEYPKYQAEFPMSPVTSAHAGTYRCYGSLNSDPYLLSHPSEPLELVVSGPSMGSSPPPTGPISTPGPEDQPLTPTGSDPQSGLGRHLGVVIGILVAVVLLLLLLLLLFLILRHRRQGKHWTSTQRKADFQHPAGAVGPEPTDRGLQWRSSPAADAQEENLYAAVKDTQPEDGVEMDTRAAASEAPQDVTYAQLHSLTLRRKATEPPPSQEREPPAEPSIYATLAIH

Row | Variant | effect of a mutation on the interaction
1 | MVVMAPRTLFLLLSGALTLTETWAGSHSMRYFSAAVSRPGRGEPRFIAMGYVDDTQFVRFDSDSASPRMEPRAPWVEQEGPEYWEEETRNTKAHAQTDRMNLQTLRGYYNQSEANPPKTHVTHHPVFDYEATLRCWALGFYPAEIILTWQRDGEDQTQDVELVETRPAGDGTFQKWAAVVVPSGEEQRYTCHVQHEGLPEPLMLRWKQSSLPTIPIMGIVAGLVVLAAVVTGAAVAAVLWRKKSSD [C66S] | with no effect
